In patent US20110045003A1 (SYNOVEX, published 2011):

Molecular target: T1, BSA coupled 37-mer Cad-11 peptide encompassing the Cad-11 immunogen (UniProt P55287 54-90, limits assumed, linked to BSA)
T1 construct: domain: 37-mer peptide encompassing the Cad-11 immunogen; also called Cad-11 antigen; Cad-11 peptide immunogen
T1 peptide (looked up): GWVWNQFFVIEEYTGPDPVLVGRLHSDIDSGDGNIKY
Assay: ELISA, BSA-coupled 37-mer cadherin peptide coated at 500 ng/ml, antibody titrated, A450
Method: Reactibind plates (ThermoScientific) were coated with 500 ng/ml of the BSA coupled cadherin 37-mer peptide (NE peptide) corresponding to Cadherins-7, -8, -9, -11, -18, -20, and -24 in 0.05% Tween (EMD, product code 9480) in PBS (pH 7.2) (Gibco(Invitrogen), #20012) at 100 μl volume/well for overnight at 4° C. The peptide containing solution was removed from the well and the plate blocked with a 2% bovine serum albumin (BSA) in PBS, 200 μl volume/well, for 2 h at 22° C. The plate was then washed twice with 200 μl/well of PBS-Tween 0.05% at 22° C. and blotted dry. A dilution series from 5 μg/ml to 8 ng/ml in a volume of 100 μl/well of each the humanized anti-Cad-11 antibodies were incubated in the peptide coated wells and incubated at 22° C. for 1 hr. Antibody solution was removed from the wells and the plate washed twice with 200 μl/well of 0.05% Tween-PBS at 22° C. and blotted dry. The goat-anti mouse IgG (Pierce # 31432) was added to each well to plate at a 1:1000 dilution, 100 μl/well and incubate at 22° C. for 30 min. The secondary antibody solution was removed and the plate washed twice with 200 μl/well of 0.05% Tween-PBS at 22° C. and blotted dry. The reaction was developed by adding 100 μl/well tetramethylbenzidine (TMB) reagent IgG (Pierce # 34022, 1 step Turbo TMB-ELISA) to plate and developed at 22° C. for 5 min.

B1: humanized anti-Cad-11 EC1 antibody SDP051 (Vκ1/VH5) (antibody, IgG4, V domains shown)
VH: EVQLVQSGAEVKKPGASVKVSCKASGYSFTGYFMNWVRQAPGQGLEWIGRINPYTGDTFYNQKFKGRVTITVDKSTSTAYMELSSLRSEDTAVYYCGRLGSRYWYFDVWGQGTTVTVSS
VL: DVLMTQTPLSSPVTLGQPASISCRSSQSIIHSNGNTYLEWYLQKPGQSPQLLIYKVSNRFSGVPDRFTGSGSGTDFTLKISRVEAEDVGVYYCFQGSHVPWTFGQGTKLEIK
notes: humanized IgG4 (S241P), kappa
EC50 (read off the curve): ~0.04 mg/L
